Each sequence was assayed on AncSZ (assay: phosphorylation enrichment, bacterial display (enrichment ratio); higher = better substrate or ligand; peptides without Tyr show the background).
In the case of ITNLLYHVVGW [GBA_Y412], the phosphorylation enrichment is reported as 1.18.
In the case of APTSGYQEFIH [IL4R_Y575_V579I], the phosphorylation enrichment is reported as 0.717.
Sequence SSAETYSRMCL [NBEAL2_Y1835_R1839C] has a phosphorylation enrichment of 0.84.
Work on RLLVDYPWTQR [HBB_Y36_V35D] yielded a phosphorylation enrichment of 0.978.
With VNLVLYLSIAK [FBXO15_Y496] the phosphorylation enrichment was 1.13.
With DNEAIYDICRR [TUBA4A_Y210] the phosphorylation enrichment was 2.79.
For DPADRYLTEQC [CDKL5_Y286], the phosphorylation enrichment was 0.986.
Work on FSQQTYFPVSN [ABCD1_Y180_R182P_YF] yielded a phosphorylation enrichment of 1.1.
Sequence EQMASYSGHSV [ITGA2B_Y319_F320S] has a phosphorylation enrichment of 0.496.
NVKGIYAVADV [GSR_Y371_G374A] gave a phosphorylation enrichment of 0.977.
Sequence LLRLAYLADVF [ZBED5_Y476_I480V] has a phosphorylation enrichment of 1.18.
For MDNQEYKDAFK [BRDT_Y331_YF], the phosphorylation enrichment was 1.15.
Work on SDIEEYVHRIG [DDX3X_Y525] yielded a phosphorylation enrichment of 0.978.
EQQDMYRLKVL [ABCC6_Y372_N370D] was tested, and the phosphorylation enrichment was 0.774.
FARNCYVAGQY [G6PD_Y107_S106C] was tested, and the phosphorylation enrichment was 1.08.
DIRAQYDELAQ [KRT18_Y256_R261Q] was tested, and the phosphorylation enrichment was 1.08.
For IEKLTYIDEWF [CPS1_Y872_K875E], the phosphorylation enrichment was 1.18.
EFGRRYGFSRQ [CCDC93_Y209_YF] gave a phosphorylation enrichment of 0.621.
EESSHCSTEKE [ADAR_Y587_Y587C] showed a phosphorylation enrichment of 1.06.
For DLREKYMDCGG [HAP1_Y440], the phosphorylation enrichment was 0.919.
LAIEGYVVVCK [RHO_Y136_R135G] showed a phosphorylation enrichment of 1.5.
With LFSNAYLSDLA [ALDH1A1_Y119_N121S_YF] the phosphorylation enrichment was 2.21.
IRTDAYVRAMT [RPE65_Y89] gave a phosphorylation enrichment of 0.515.
KLKNAYEECLE [MYH7_Y1488_S1491C] was tested, and the phosphorylation enrichment was 1.15.
In the case of VYYGSYSRPYG [NKAP_Y104], the phosphorylation enrichment is reported as 1.19.
AASTDYNKRGD [PDHA1_Y242_Y243N] showed a phosphorylation enrichment of 0.578.
RHEASYSSDSE [REPS1_Y116_A113E] was tested, and the phosphorylation enrichment was 1.03.
In the case of KVPAIYGVDTR [CPS1_Y162], the phosphorylation enrichment is reported as 0.61.
Work on RLLRGYDQFAF [HLA-B_Y137_H137Y_YF] yielded a phosphorylation enrichment of 0.885.
For KPSLKYVTFGN [GALNTL5_Y404_G401S_YF], the phosphorylation enrichment was 0.736.
MGRVKYGAYIN [GLB1_Y485_N484K] gave a phosphorylation enrichment of 0.506.
GKTFTYHSVFF [ZNF80_Y200_R201H] gave a phosphorylation enrichment of 1.31.
Sequence PIQLFYTRKNT [GHR_Y86_R89K] has a phosphorylation enrichment of 4.3.

The sequences below were run against EPHB1 (UniProt P54762) in the same assay as above.
Sequence of EPHB1 (P54762 whole entry, looked up): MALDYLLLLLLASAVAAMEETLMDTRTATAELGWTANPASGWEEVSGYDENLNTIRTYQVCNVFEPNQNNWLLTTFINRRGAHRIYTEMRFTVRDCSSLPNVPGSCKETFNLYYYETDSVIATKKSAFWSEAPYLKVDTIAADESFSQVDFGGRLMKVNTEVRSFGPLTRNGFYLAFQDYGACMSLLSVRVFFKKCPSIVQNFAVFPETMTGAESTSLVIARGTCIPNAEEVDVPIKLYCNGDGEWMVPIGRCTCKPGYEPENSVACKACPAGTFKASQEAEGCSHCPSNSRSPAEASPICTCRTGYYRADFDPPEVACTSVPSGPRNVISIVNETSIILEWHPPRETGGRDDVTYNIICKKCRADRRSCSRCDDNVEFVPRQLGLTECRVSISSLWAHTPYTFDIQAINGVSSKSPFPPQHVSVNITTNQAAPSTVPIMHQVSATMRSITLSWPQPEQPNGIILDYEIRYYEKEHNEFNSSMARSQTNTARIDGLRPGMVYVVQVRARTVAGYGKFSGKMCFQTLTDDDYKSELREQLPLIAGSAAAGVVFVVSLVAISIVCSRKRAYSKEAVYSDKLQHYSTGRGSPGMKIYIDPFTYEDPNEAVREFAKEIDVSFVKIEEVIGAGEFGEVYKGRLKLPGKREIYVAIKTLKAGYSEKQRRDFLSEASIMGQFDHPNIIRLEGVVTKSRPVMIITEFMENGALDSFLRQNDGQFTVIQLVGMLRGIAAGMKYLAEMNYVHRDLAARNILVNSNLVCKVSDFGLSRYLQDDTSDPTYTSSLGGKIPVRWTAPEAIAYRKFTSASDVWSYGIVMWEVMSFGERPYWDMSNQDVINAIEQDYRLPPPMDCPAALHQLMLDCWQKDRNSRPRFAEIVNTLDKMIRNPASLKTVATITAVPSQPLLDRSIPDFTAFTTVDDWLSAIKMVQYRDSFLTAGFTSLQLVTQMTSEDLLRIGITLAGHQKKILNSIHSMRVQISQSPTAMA
ITNLLYHVVGW [GBA_Y412] showed a phosphorylation enrichment of 5.73.
For APTSGYQEFIH [IL4R_Y575_V579I], the phosphorylation enrichment was 0.424.
Work on SSAETYSRMCL [NBEAL2_Y1835_R1839C] yielded a phosphorylation enrichment of 0.649.
For RLLVDYPWTQR [HBB_Y36_V35D], the phosphorylation enrichment was 0.591.
Work on VNLVLYLSIAK [FBXO15_Y496] yielded a phosphorylation enrichment of 0.438.
With DNEAIYDICRR [TUBA4A_Y210] the phosphorylation enrichment was 4.07.
Work on DPADRYLTEQC [CDKL5_Y286] yielded a phosphorylation enrichment of 0.485.
Work on FSQQTYFPVSN [ABCD1_Y180_R182P_YF] yielded a phosphorylation enrichment of 0.946.
In the case of EQMASYSGHSV [ITGA2B_Y319_F320S], the phosphorylation enrichment is reported as 0.298.
NVKGIYAVADV [GSR_Y371_G374A] showed a phosphorylation enrichment of 2.06.
LLRLAYLADVF [ZBED5_Y476_I480V] showed a phosphorylation enrichment of 0.74.
With MDNQEYKDAFK [BRDT_Y331_YF] the phosphorylation enrichment was 0.715.
SDIEEYVHRIG [DDX3X_Y525] showed a phosphorylation enrichment of 0.473.
EQQDMYRLKVL [ABCC6_Y372_N370D] gave a phosphorylation enrichment of 0.354.
Sequence FARNCYVAGQY [G6PD_Y107_S106C] has a phosphorylation enrichment of 0.55.
In the case of DIRAQYDELAQ [KRT18_Y256_R261Q], the phosphorylation enrichment is reported as 0.546.
Sequence IEKLTYIDEWF [CPS1_Y872_K875E] has a phosphorylation enrichment of 0.624.
EFGRRYGFSRQ [CCDC93_Y209_YF] showed a phosphorylation enrichment of 0.427.
EESSHCSTEKE [ADAR_Y587_Y587C] gave a phosphorylation enrichment of 0.631.
With DLREKYMDCGG [HAP1_Y440] the phosphorylation enrichment was 0.716.
For LAIEGYVVVCK [RHO_Y136_R135G], the phosphorylation enrichment was 0.75.
LFSNAYLSDLA [ALDH1A1_Y119_N121S_YF] was tested, and the phosphorylation enrichment was 2.12.
In the case of IRTDAYVRAMT [RPE65_Y89], the phosphorylation enrichment is reported as 0.438.
With KLKNAYEECLE [MYH7_Y1488_S1491C] the phosphorylation enrichment was 0.501.
Sequence VYYGSYSRPYG [NKAP_Y104] has a phosphorylation enrichment of 1.7.
With AASTDYNKRGD [PDHA1_Y242_Y243N] the phosphorylation enrichment was 0.453.
For RHEASYSSDSE [REPS1_Y116_A113E], the phosphorylation enrichment was 0.837.
For KVPAIYGVDTR [CPS1_Y162], the phosphorylation enrichment was 0.334.
RLLRGYDQFAF [HLA-B_Y137_H137Y_YF] was tested, and the phosphorylation enrichment was 0.505.
With KPSLKYVTFGN [GALNTL5_Y404_G401S_YF] the phosphorylation enrichment was 0.453.
With MGRVKYGAYIN [GLB1_Y485_N484K] the phosphorylation enrichment was 0.282.
In the case of GKTFTYHSVFF [ZNF80_Y200_R201H], the phosphorylation enrichment is reported as 0.602.
Work on PIQLFYTRKNT [GHR_Y86_R89K] yielded a phosphorylation enrichment of 0.65.

Each sequence was assayed against EPHB2 (UniProt P29323) in the same assay as above.
Sequence of EPHB2 (P29323 whole entry, looked up): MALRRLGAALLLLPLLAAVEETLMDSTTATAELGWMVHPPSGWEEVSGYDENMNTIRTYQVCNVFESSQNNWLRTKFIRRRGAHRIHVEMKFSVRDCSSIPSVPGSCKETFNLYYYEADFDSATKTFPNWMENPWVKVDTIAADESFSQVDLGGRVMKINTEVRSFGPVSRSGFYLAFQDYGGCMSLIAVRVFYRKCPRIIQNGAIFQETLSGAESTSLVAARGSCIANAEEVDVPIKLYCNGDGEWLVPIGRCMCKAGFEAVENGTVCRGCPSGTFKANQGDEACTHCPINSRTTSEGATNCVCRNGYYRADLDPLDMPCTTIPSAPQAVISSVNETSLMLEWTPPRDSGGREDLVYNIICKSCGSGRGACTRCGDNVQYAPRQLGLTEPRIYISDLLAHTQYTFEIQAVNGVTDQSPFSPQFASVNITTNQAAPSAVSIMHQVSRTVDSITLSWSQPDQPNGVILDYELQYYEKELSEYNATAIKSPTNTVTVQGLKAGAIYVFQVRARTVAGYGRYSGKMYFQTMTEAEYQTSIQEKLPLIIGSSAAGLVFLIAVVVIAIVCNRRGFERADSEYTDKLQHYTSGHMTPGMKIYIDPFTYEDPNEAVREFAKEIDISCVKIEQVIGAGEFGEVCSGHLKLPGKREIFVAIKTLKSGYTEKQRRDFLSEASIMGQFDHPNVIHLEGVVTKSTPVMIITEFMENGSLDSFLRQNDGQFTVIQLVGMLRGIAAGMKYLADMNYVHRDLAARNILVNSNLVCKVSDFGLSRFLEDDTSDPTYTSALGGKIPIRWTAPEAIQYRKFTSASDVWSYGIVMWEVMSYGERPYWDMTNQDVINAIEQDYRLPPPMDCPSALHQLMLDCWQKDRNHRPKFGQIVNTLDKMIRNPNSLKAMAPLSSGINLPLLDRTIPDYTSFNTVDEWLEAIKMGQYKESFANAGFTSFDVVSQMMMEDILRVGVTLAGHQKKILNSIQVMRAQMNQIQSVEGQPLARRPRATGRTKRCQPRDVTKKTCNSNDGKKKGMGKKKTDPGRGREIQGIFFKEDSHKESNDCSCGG
For ITNLLYHVVGW [GBA_Y412], the phosphorylation enrichment was 3.59.
APTSGYQEFIH [IL4R_Y575_V579I] showed a phosphorylation enrichment of 0.582.
SSAETYSRMCL [NBEAL2_Y1835_R1839C] was tested, and the phosphorylation enrichment was 0.616.
Work on RLLVDYPWTQR [HBB_Y36_V35D] yielded a phosphorylation enrichment of 0.542.
VNLVLYLSIAK [FBXO15_Y496] showed a phosphorylation enrichment of 0.628.
DNEAIYDICRR [TUBA4A_Y210] was tested, and the phosphorylation enrichment was 4.97.
With DPADRYLTEQC [CDKL5_Y286] the phosphorylation enrichment was 0.558.
FSQQTYFPVSN [ABCD1_Y180_R182P_YF] was tested, and the phosphorylation enrichment was 0.908.
EQMASYSGHSV [ITGA2B_Y319_F320S] was tested, and the phosphorylation enrichment was 0.363.
Work on NVKGIYAVADV [GSR_Y371_G374A] yielded a phosphorylation enrichment of 3.77.
Work on LLRLAYLADVF [ZBED5_Y476_I480V] yielded a phosphorylation enrichment of 0.583.
Sequence MDNQEYKDAFK [BRDT_Y331_YF] has a phosphorylation enrichment of 0.602.
SDIEEYVHRIG [DDX3X_Y525] showed a phosphorylation enrichment of 0.456.
In the case of EQQDMYRLKVL [ABCC6_Y372_N370D], the phosphorylation enrichment is reported as 0.482.
Sequence FARNCYVAGQY [G6PD_Y107_S106C] has a phosphorylation enrichment of 0.526.
Sequence DIRAQYDELAQ [KRT18_Y256_R261Q] has a phosphorylation enrichment of 0.574.
Work on IEKLTYIDEWF [CPS1_Y872_K875E] yielded a phosphorylation enrichment of 0.557.
Work on EFGRRYGFSRQ [CCDC93_Y209_YF] yielded a phosphorylation enrichment of 0.416.
EESSHCSTEKE [ADAR_Y587_Y587C] was tested, and the phosphorylation enrichment was 0.683.
For DLREKYMDCGG [HAP1_Y440], the phosphorylation enrichment was 0.625.
In the case of LAIEGYVVVCK [RHO_Y136_R135G], the phosphorylation enrichment is reported as 0.826.
In the case of LFSNAYLSDLA [ALDH1A1_Y119_N121S_YF], the phosphorylation enrichment is reported as 1.15.
Work on IRTDAYVRAMT [RPE65_Y89] yielded a phosphorylation enrichment of 0.458.
With KLKNAYEECLE [MYH7_Y1488_S1491C] the phosphorylation enrichment was 0.554.
VYYGSYSRPYG [NKAP_Y104] showed a phosphorylation enrichment of 2.66.
For AASTDYNKRGD [PDHA1_Y242_Y243N], the phosphorylation enrichment was 0.313.
Work on RHEASYSSDSE [REPS1_Y116_A113E] yielded a phosphorylation enrichment of 0.591.
Sequence KVPAIYGVDTR [CPS1_Y162] has a phosphorylation enrichment of 0.383.
Work on RLLRGYDQFAF [HLA-B_Y137_H137Y_YF] yielded a phosphorylation enrichment of 0.725.
KPSLKYVTFGN [GALNTL5_Y404_G401S_YF] was tested, and the phosphorylation enrichment was 0.453.
In the case of MGRVKYGAYIN [GLB1_Y485_N484K], the phosphorylation enrichment is reported as 0.408.
With GKTFTYHSVFF [ZNF80_Y200_R201H] the phosphorylation enrichment was 0.547.
With PIQLFYTRKNT [GHR_Y86_R89K] the phosphorylation enrichment was 0.835.

What follows are sequences tested against FGFR1 (UniProt P11362) in the same assay as above.
Sequence of FGFR1 (P11362 whole entry, looked up): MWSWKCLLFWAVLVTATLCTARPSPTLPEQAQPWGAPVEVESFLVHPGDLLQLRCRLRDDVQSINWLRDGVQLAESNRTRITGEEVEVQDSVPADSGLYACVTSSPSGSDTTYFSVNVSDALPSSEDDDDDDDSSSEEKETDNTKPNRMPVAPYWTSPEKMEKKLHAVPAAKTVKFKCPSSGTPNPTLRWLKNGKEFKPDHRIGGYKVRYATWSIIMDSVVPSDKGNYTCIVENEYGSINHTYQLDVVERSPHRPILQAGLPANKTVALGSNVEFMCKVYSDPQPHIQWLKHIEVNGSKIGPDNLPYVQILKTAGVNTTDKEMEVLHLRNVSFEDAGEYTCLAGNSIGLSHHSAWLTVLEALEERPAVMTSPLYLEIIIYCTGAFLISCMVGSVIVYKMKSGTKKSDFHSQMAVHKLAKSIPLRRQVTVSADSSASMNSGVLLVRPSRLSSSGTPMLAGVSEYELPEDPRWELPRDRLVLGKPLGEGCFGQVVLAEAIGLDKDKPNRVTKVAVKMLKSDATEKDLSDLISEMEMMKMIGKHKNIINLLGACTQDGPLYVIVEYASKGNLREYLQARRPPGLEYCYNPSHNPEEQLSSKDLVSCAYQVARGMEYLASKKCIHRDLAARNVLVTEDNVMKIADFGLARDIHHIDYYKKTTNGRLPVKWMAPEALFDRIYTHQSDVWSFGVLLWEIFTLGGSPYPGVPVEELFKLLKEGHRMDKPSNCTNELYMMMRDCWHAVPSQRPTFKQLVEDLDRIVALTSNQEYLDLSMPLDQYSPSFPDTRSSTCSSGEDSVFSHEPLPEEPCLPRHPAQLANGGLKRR
ITNLLYHVVGW [GBA_Y412] was tested, and the phosphorylation enrichment was 6.87.
In the case of APTSGYQEFIH [IL4R_Y575_V579I], the phosphorylation enrichment is reported as 0.572.
Work on SSAETYSRMCL [NBEAL2_Y1835_R1839C] yielded a phosphorylation enrichment of 0.426.
Sequence RLLVDYPWTQR [HBB_Y36_V35D] has a phosphorylation enrichment of 0.544.
VNLVLYLSIAK [FBXO15_Y496] gave a phosphorylation enrichment of 0.581.
In the case of DNEAIYDICRR [TUBA4A_Y210], the phosphorylation enrichment is reported as 0.671.
In the case of DPADRYLTEQC [CDKL5_Y286], the phosphorylation enrichment is reported as 0.458.
Work on FSQQTYFPVSN [ABCD1_Y180_R182P_YF] yielded a phosphorylation enrichment of 4.99.
Sequence EQMASYSGHSV [ITGA2B_Y319_F320S] has a phosphorylation enrichment of 0.384.
NVKGIYAVADV [GSR_Y371_G374A] showed a phosphorylation enrichment of 0.506.
With LLRLAYLADVF [ZBED5_Y476_I480V] the phosphorylation enrichment was 0.577.
For MDNQEYKDAFK [BRDT_Y331_YF], the phosphorylation enrichment was 0.504.
Work on SDIEEYVHRIG [DDX3X_Y525] yielded a phosphorylation enrichment of 0.426.
EQQDMYRLKVL [ABCC6_Y372_N370D] was tested, and the phosphorylation enrichment was 0.451.
FARNCYVAGQY [G6PD_Y107_S106C] was tested, and the phosphorylation enrichment was 0.443.
For DIRAQYDELAQ [KRT18_Y256_R261Q], the phosphorylation enrichment was 0.49.
For IEKLTYIDEWF [CPS1_Y872_K875E], the phosphorylation enrichment was 0.567.
For EFGRRYGFSRQ [CCDC93_Y209_YF], the phosphorylation enrichment was 0.43.
EESSHCSTEKE [ADAR_Y587_Y587C] showed a phosphorylation enrichment of 0.593.
For DLREKYMDCGG [HAP1_Y440], the phosphorylation enrichment was 0.507.
LAIEGYVVVCK [RHO_Y136_R135G] gave a phosphorylation enrichment of 0.707.
With LFSNAYLSDLA [ALDH1A1_Y119_N121S_YF] the phosphorylation enrichment was 2.39.
In the case of IRTDAYVRAMT [RPE65_Y89], the phosphorylation enrichment is reported as 0.444.
With KLKNAYEECLE [MYH7_Y1488_S1491C] the phosphorylation enrichment was 0.508.
For VYYGSYSRPYG [NKAP_Y104], the phosphorylation enrichment was 2.77.
AASTDYNKRGD [PDHA1_Y242_Y243N] was tested, and the phosphorylation enrichment was 0.452.
For RHEASYSSDSE [REPS1_Y116_A113E], the phosphorylation enrichment was 0.722.
With KVPAIYGVDTR [CPS1_Y162] the phosphorylation enrichment was 0.398.
RLLRGYDQFAF [HLA-B_Y137_H137Y_YF] showed a phosphorylation enrichment of 0.617.
In the case of KPSLKYVTFGN [GALNTL5_Y404_G401S_YF], the phosphorylation enrichment is reported as 0.396.
Work on MGRVKYGAYIN [GLB1_Y485_N484K] yielded a phosphorylation enrichment of 0.374.
GKTFTYHSVFF [ZNF80_Y200_R201H] showed a phosphorylation enrichment of 0.618.
In the case of PIQLFYTRKNT [GHR_Y86_R89K], the phosphorylation enrichment is reported as 0.718.

From the supplement of paper PMC10065799, “High-throughput profiling of sequence recognition by tyrosine kinases and SH2 domains using bacterial peptide display” (eLife, 2023)
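Note: 11-residue human phosphosite peptides and single-mutation variants displayed on the E. coli surface, counted by deep sequencing, each peptide's frequency after selection divided by its frequency in the unselected input library; frequency after pTyr selection over input frequency; kinase dosed for 20-30% of maximal phosphorylation in three min.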
